How the values were obtained:
[1] = target: T1, human TNFR2 expressed on cells (human, UniProt P20333 23-461); assay: cell-based or functional assay
T1 sequence (looked up): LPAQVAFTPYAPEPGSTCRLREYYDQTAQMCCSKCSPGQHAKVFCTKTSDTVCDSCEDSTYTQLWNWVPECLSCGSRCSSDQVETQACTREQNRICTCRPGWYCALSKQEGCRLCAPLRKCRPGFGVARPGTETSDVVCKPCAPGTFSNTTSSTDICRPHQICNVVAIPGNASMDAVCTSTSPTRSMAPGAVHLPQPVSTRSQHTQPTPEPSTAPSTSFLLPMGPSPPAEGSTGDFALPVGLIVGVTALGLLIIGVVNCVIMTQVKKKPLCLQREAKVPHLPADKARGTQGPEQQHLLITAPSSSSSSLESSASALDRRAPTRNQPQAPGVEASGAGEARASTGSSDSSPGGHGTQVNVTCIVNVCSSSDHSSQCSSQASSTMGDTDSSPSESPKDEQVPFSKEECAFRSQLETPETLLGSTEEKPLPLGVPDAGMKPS

[2] = target: T1, human TNFR2 expressed on cells; assay: cell binding on TNFR2-overexpressing (OE) cells
[3] = target: T2, death receptor 6 (DR6) (UniProt O75509 42-349, limits assumed); assay: ELISA on coated DR6, OD 650 nm
T2 sequence (looked up): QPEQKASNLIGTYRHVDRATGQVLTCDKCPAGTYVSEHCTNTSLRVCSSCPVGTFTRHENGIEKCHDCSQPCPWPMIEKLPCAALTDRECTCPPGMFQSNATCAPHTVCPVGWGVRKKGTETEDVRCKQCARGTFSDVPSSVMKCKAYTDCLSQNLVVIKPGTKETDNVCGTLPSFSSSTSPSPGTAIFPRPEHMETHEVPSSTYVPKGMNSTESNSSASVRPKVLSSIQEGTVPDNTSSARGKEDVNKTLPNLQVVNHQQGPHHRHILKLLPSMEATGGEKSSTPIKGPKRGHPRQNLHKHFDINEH
Experimental: (§1) To test binding to TNFR family members, target proteins were coated on ELISA plates at 1 μg/mL at 4° C. overnight. Plates were washed, blocked, and antibodies were added at indicated concentrations for 1 hour at RT. Positive control antibodies for each protein were used at ˜1 ug/mL. Antibodies were washed and detected with anti-human IgG HRP for 1 hour. Assay was developed using TMB substrate for 10 minutes. For cell-binding, human CD4+ T cells purified from buffy coats were cultured in flat-bottom plates with anti-CD3/CD28 for 24 hours. Cells were harvested and stained for viability, CD4, CD25 and FOXP3. Test antibody staining was detected using anti-human IgG APC. Binding titration of test antibodies was evaluated on CD4+CD25hiFOXP3+ regulatory T cells and plotted as percent binding.

[4] = target: T3, cynomolgus TNFR2-His tagged protein (cynomolgus, UniProt A0A2K5VET2 132-366); assay: ELISA, cynomolgus TNFR2
T3 construct: also called Cyno TNFR2; cynomolgus TNFR2 protein; not shown: His tag
T3 sequence: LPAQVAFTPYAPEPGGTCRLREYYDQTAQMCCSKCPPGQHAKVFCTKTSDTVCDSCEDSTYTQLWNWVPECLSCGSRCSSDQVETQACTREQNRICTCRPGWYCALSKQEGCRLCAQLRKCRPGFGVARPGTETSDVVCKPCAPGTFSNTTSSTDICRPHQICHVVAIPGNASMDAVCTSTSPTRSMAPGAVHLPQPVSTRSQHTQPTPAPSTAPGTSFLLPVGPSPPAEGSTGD

[5] = target: T4, herpesvirus entry mediator (HVEM) (UniProt Q92956 39-202, limits assumed); assay: ELISA on coated HVEM, OD 650 nm
T4 sequence (looked up): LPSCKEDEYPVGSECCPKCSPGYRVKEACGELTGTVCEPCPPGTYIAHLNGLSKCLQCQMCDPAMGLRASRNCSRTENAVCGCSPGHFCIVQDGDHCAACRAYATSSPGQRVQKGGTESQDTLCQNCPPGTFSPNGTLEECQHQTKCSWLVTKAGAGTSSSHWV
Experimental: as §1

- ADCC EC50 (reporter line) [1]: 1.14 nM
- ADCP EC50 [1]: 0.71 nM
- Kd [2]: 0.12 nM
- EC50 [4]: 0.123 nM
- binding result [5]: no binding (tested: about 67 nM)
B1: humanized antibody h600-25-71 (antibody, V domains shown)
VH: EVQLVESGGGLVQPGGSLRLSCAASGIDLSSYAMGWVRQAPGKGLEWVGDISTSGNAYYATWVKGRFTISRDNSKNTLYLQMNSLRAEDTAVYYCARADYGGETYAFDPWGQGTLVTVSS
VL: DIQMTQSPSSLSASVGDRVTITCQASQSISSYLNWYQQKPGKAPKLLIYSASTLASGVPSRFSGSGSGTDFTLTISSLQPEDFATYYCQQGYSDSNIDNVFGGGTKVEIK
notes: also called Ab 25-71; clone 25-71
- binding result [3]: no binding (tested: about 67 nM)
